Source: patent US20120283173A1 (UNIVERSITATSKLINIKUM HAMBURG EPPENDORF, published 2012)

T1: Pseudomonas aeruginosa lectin PA-IL (Pseudomonas aeruginosa, UniProt Q05097 2-122)
T1 sequence (looked up): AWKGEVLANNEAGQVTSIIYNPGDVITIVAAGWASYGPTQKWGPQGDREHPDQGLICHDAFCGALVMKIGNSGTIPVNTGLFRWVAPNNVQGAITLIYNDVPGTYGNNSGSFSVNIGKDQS


What was measured:
[1] = target: T1, Pseudomonas aeruginosa lectin PA-IL; assay: cell-based or functional assay
[2] = target: Pseudomonas aeruginosa lectin PA-IIL (Pseudomonas aeruginosa); assay: cell-based or functional assay

Binder | IC50 of inhibition of the PA-IL-induced decrease of ciliary beat frequency (CBF) [1] [µM] | IC50 of inhibition of the PA-IIL-induced decrease of ciliary beat frequency (CBF) [2] [µM]
FLHTRLFV [HNK-1 mimetic peptide pHNK-1] | 484 | 968
TVFHFRLL [peptide sHNK-1 (scrambled version of pHNK-1)] | 968 | –
